Source: publication doi:10.1101/2022.12.05.519077

Target: Kcnj13 (Kir7.1) from D. rerio fused to mCherry, with N-terminal His-tags (D. rerio)
Assay: mass photometry

stoichiometry N: 4
Substance: Kcnj13 (Kir7.1) from D. rerio fused to mCherry, with N-terminal His-tags (natural protein)
